These results are taken from patent US20140271675A1 (Eli Lilly, published 2014).

Test [1] addresses hVEGFR1-Fc (R&D 321-fl 050/cf) (human) (UniProt P17948). Briefly: competition ELISA, coated hVEGFR1-Fc, competitor biotin-hPLGF1 2 nM; control Ron antibody 1.852 µg/ml.
For test [2] the target is unchanged. Briefly: competition ELISA, coated hVEGFR1-Fc, competitor biotin-hPLGF1 4 nM; control Ron antibody 0.0206 µg/ml. Background: An ELISA detects its analyte on a solid surface through an enzyme-linked reagent.
For test [3] the target is unchanged. Briefly: competition ELISA, coated hVEGFR1-Fc, competitor biotin-hPLGF1 2 nM; control Ron antibody 0.206 µg/ml.
The target is the same in test [4]. Description: competition ELISA, coated hVEGFR1-Fc, competitor biotin-hVEGFA-165 2 nM; control Ron antibody 50.000 µg/ml.
Test [5] has the same target. Description: competition ELISA, coated hVEGFR1-Fc, competitor biotin-hVEGFA-165 2 nM; control Ron antibody 0.0206 µg/ml.
The target is the same in test [6]. Description: competition ELISA, coated hVEGFR1-Fc, competitor biotin-hPLGF1 4 nM; control Ron antibody 0.5556 µg/ml.
The target is the same in test [7]. Description: competition ELISA, coated hVEGFR1-Fc, competitor biotin-hVEGFA-165 2 nM; control Ron antibody 0.5556 µg/ml.
Test [8] shares this target. Description: competition ELISA, coated hVEGFR1-Fc, competitor biotin-hVEGFA-165 2 nM; control Ron antibody 0.0069 µg/ml.

hVEGFR1-Fc (R&D 321-fl 050/cf) (human), sequence (P17948 27-758): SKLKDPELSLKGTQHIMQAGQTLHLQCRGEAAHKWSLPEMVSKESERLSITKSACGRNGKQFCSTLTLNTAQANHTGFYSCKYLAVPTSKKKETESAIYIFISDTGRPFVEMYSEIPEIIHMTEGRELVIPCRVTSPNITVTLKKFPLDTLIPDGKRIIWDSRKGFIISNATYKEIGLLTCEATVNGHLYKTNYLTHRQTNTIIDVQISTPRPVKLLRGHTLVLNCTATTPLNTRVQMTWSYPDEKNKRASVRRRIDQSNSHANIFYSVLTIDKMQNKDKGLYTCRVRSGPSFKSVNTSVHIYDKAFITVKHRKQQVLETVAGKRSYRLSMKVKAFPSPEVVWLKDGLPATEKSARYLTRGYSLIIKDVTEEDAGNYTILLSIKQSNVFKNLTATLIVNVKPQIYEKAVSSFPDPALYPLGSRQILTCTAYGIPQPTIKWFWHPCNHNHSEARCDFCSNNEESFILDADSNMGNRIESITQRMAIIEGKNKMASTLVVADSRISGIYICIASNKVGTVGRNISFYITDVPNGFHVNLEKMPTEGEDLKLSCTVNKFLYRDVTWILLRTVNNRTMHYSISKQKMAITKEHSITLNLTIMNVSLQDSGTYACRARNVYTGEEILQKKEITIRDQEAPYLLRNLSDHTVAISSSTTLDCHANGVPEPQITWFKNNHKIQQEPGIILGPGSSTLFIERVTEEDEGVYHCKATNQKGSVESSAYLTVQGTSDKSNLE

Turning to control Ron antibody (R&D MAB691), the OD560 (bound biotinylated PlGF) in test [1] came to 0.3 OD; in test [2], 0.389 OD; in test [3] it was 0.315 OD; in test [6], 0.436 OD. The OD560 (bound biotinylated VEGF-A) was 0.515 OD in test [4], 1.62 OD in test [5], 1.47 OD in test [7] and 1.53 OD in test [8].
